Test results reported in patent publication US20250034274A1 (Daiichi Sankyo, published 2025).
One block for each binder: values may come before it.

Assays:
[1] = target: T1, biotinylated human TROP2 antigen (human, UniProt P09758 27-274, C-terminal Avi tag sequence biotinylated); experiment: ELISA, immobilised biotinylated human TROP2, anti-FLAG-HRP, chemiluminescence; scFv pre-incubated with MMP1
T1 construct: extracellular domain; Extracellular domain purified in house
T1 sequence (looked up): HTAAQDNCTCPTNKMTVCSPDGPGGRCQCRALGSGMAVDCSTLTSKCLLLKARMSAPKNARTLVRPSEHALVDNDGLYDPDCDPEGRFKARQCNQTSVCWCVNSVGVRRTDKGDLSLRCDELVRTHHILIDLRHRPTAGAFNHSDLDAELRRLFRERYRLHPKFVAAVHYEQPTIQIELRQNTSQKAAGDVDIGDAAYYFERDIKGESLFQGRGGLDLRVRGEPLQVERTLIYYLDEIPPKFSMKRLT
Method: (§1) NeutrAvidin (Thermo Fisher Scientific) diluted to 1 μg/ml with PBS was added at 50 μl/well to a 96-well Maxi-sorp plate (Black, Nunc) and immobilized at 4° C. overnight. The plate was washed with PBS containing 0.05% (w/v) Tween-20 (BioRad) (ELISA buffer) and then blocked with Blocker Casein (Thermo Fisher Scientific). The plate was washed with ELISA buffer, the biotinylated human TROP2 antigen (Accession Number: P09758; the extracellular domain was purified by the method known to a person skilled in the art and the C-terminal Avi tag sequence was then biotinylated) diluted to 1 μg/ml with PBS was added at 50 μl/well, and the resultant was then agitated for 30 minutes at room temperature. […] The plate was washed with ELISA buffer, the SuperSignal Pico ELISA chemiluminescent substrate (Thermo Fisher Scientific) was added, and chemiluminescence 10 minutes thereafter was then assayed using a plate reader.
(§2) The resultant was then added to the plate comprising the human TROP2 antigen immobilized thereon at 50 μl/well. The bound scFv was detected using the HRP-labeled anti-FLAG antibody (Sigma-Aldrich) diluted to 5,000-fold with ELISA buffer.

[2] = target: T1, biotinylated human TROP2 antigen; experiment: ELISA, immobilised biotinylated human TROP2, anti-FLAG-HRP, chemiluminescence; without MMP1
Method: as §1, §2

[3] = target: T2, biotinylated human GPRC5D amino terminal peptide (human, K(Biotin) at the C-terminus; C-terminal amide (NH2)); experiment: ELISA, immobilised biotinylated human GPRC5D amino terminal peptide, anti-human IgG-HRP, chemiluminescence
T2 construct: The last K carries the biotin and is an added residue as printed; also called human GPRC5D antigen; humanGPRC5D antigen
T2 peptide: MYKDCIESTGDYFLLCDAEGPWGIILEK
Method: NeutrAvidin (Thermo Fisher Scientific) diluted to 1 μg/ml with PBS was added at 50 μl/well to a 96-well Maxi-sorp plate (Black, Nunc) and immobilized at 4° C. overnight. The plate was washed with PBS (ELISA buffer) containing 0.05 (w/v) % Tween-20 (BioRad) and then blocked with Blocker Casein (Thermo Fisher Scientific). The plate was washed with ELISA buffer, the biotinylated human GPRC5D amino terminal peptide ([sequence]-K(Biotin)-NH₂ (Peptide Institute, Inc.)) diluted to 1 μg/ml with PBS was added at 50 μl/well, and the resultant was agitated for 30 minutes at room temperature. The plate was washed with ELISA buffer, the MMP-buffered antibody was added at 50 μl/well, and the resultant was then agitated for 30 minutes at room temperature. The plate was washed with ELISA buffer, 50 μl of the horseradish peroxidase (HRP)-labeled anti-human IgG antibody (Jackson Immuno Research Laboratories) diluted to 2,500-fold with ELISA buffer was added, and the resultant was then agitated for 30 minutes at room temperature. The plate was washed with ELISA buffer, the SuperSignal Pico ELISA chemiluminescent substrate (Thermo Fisher Scientific) was added, and chemiluminescence 10 minutes thereafter was then assayed using a plate reader.

[4] = target: T1, biotinylated human TROP2 antigen; experiment: ELISA, immobilised biotinylated human TROP2, anti-FLAG-HRP, chemiluminescence; scFv pre-incubated with MMP1; remark: listed apart in the source
Method: as §1, §2

[5] = target: T1, biotinylated human TROP2 antigen; experiment: ELISA on human TROP2, scFv with or without MMP1 cleavage
Method: as §2
Thereafter, the antibody with the concentration thereof being adjusted with ELISA buffer was added to the wells.

[6] = target: T1, biotinylated human TROP2 antigen; experiment: ELISA, immobilised biotinylated human TROP2, anti-FLAG-HRP, chemiluminescence; without MMP1; remark: listed apart in the source
Method: as §1, §2

[7] = target: T1, biotinylated human TROP2 antigen; experiment: ELISA, immobilised biotinylated human TROP2, anti-human IgG-HRP, chemiluminescence
Method: (§3) NeutrAvidin (Thermo Fisher Scientific) diluted to 1 μg/ml with PBS was added at 50 μl/well to a 96-well Maxi-sorp plate (Black, Nunc) and immobilized at 4° C. overnight. The plate was washed with PBS containing 0.05% (w/v) Tween-20 (BioRad) (ELISA buffer) and then blocked with Blocker Casein (Thermo Fisher Scientific). The plate was washed with ELISA buffer, the biotinylated human TROP2 antigen (Accession Number: P09758; the extracellular domain was purified by the method known to a person skilled in the art and the C-terminal Avi tag sequence was then biotinylated) diluted to 1 μg/ml with PBS was added at 50 μl/well, and the resultant was then agitated for 30 minutes at room temperature. […] The plate was washed with ELISA buffer, 50 μl of the horseradish peroxidase (HRP)-labeled anti-human IgG antibody (Jackson Immuno Research Laboratories) diluted to 2,500-fold with ELISA buffer was added, and the resultant was then agitated for 30 minutes at room temperature. The plate was washed with ELISA buffer, the SuperSignal Pico ELISA chemiluminescent substrate (Thermo Fisher Scientific) was added, and chemiluminescence 10 minutes thereafter was then assayed using a plate reader.

[8] = target: T1, biotinylated human TROP2 antigen; experiment: ELISA, immobilised biotinylated human TROP2, anti-human IgG-HRP, chemiluminescence; antibody pre-incubated with MMP1
Method: as §3

[9] = target: T1, biotinylated human TROP2 antigen; experiment: ELISA, immobilised biotinylated human TROP2, anti-human IgG-HRP, chemiluminescence; without MMP1
Method: as §3

[10] = target: T1, biotinylated human TROP2 antigen; experiment: ELISA on human TROP2, antibody with or without uPA cleavage
Method: as §3

[11] = target: T1, biotinylated human TROP2 antigen; experiment: ELISA, immobilised biotinylated human TROP2, anti-human IgG-HRP, chemiluminescence; without uPA
Method: as §3

[12] = target: T1, biotinylated human TROP2 antigen; experiment: ELISA, immobilised biotinylated human TROP2, anti-human IgG-HRP, chemiluminescence; antibody pre-incubated with uPA
Method: as §3

[13] = target: T1, biotinylated human TROP2 antigen; experiment: ELISA on human TROP2, antibody with or without MMP1 cleavage
Method: as §3

[14] = target: T1, biotinylated human TROP2 antigen; experiment: ELISA, immobilised biotinylated human TROP2, anti-human IgG-HRP, chemiluminescence; without MMP1; remark: listed apart in the source
Method: as §3

[15] = target: T1, biotinylated human TROP2 antigen; experiment: ELISA, immobilised biotinylated human TROP2, anti-human IgG-HRP, chemiluminescence; antibody pre-incubated with MMP1; remark: listed apart in the source
Method: as §3

[16] = target: T1, biotinylated human TROP2 antigen; experiment: ELISA, immobilised biotinylated human TROP2, anti-FLAG-HRP, chemiluminescence; scFv pre-incubated with MMP1; remark: listed apart in the source
Method: as §1, §2

[17] = target: T1, biotinylated human TROP2 antigen; experiment: ELISA, immobilised biotinylated human TROP2, anti-FLAG-HRP, chemiluminescence; without MMP1; remark: listed apart in the source
Method: as §1, §2

[18] = target: T1, biotinylated human TROP2 antigen; experiment: ELISA, immobilised biotinylated human TROP2, anti-FLAG-HRP, chemiluminescence; scFv pre-incubated with MMP1; remark: listed apart in the source
Method: as §1, §2

B1: HT1-11-scFv-LH (scFv)
scFv: ADVNSDIQMTQSPSSLSASVGDRVTITCKASQDVSTAVAWYQQKPGKAPKLLIYSASYRYTGVPSRFSGSGSGTDFTLTISSLQPEDFAVYYCQQHYITPLTFGQGTKLEIKRGGGGSGGGGSGGGGSQVQLVQSGAEVKKPGASVKVSCKASGYTFTTAGMQWVRQAPGQGLEWMGWINTHSGVPKYAEDFKGRVTISADTSTSTAYLQLSSLKSEDTAVYYCARSGFGSSYWYFDVWGQGTLVTVSSGAPSGDYKDDDDKGAAAHHHHHH
notes: No mimotope fused; expressed in E. coli, purified on Ni Sepharose; also called scFv-type anti-TROP2 antibody
EC50 (read off the curve) [1]: ~3 nM
EC50 (read off the curve) [2]: ~3 nM

B2: anti-GPRC5D antibody C3022 (antibody, V domains shown)
VH: QVQLVQSGAEVKKPGASVKVSCKASGYTFTGYYMHWVRQAPGQGLEWMGRINPNSGGTNYAQKFQGRVTMTRDTSISTAYMELSGLRSDDTAVYYCASGSVRHPWGQGTLVTVSS
VL: QPVLTQPPSASGTPGQRVTISCSGSRSNIGGNIVSWYQQFPGTAPRLLTYADNQRPSGVPDRFSGSKSGTSASLAISGLQSEDEADYYCAAWDDSLNGVVFGGGTKLTVLG
notes: Known antibody of WO 2018/147245
EC50 (read off the curve) [3]: ~0.3 nM

B3: MHT1002 (scFv)
scFv: AMGYLALKHPWPGLAENSGSGGGGSVLVPMAMMASGGSDVNSDIQMTQSPSSLSASVGDRVTITCKASQDVSTAVAWYQQKPGKAPKLLIYSASYRYTGVPSRFSGSGSGTDFTLTISSLQPEDFAVYYCQQHYITPLTFGQGTKLEIKRGGGGSGGGGSGGGGSQVQLVQSGAEVKKPGASVKVSCKASGYTFTTAGMQWVRQAPGQGLEWMGWINTHSGVPKYAEDFKGRVTISADTSTSTAYLQLSSLKSEDTAVYYCARSGFGSSYWYFDVWGQGTLVTVSSGAPSGDYKDDDDKGAAAHHHHHH
notes: Mimotope peptide, MMP cleavable linker, HT1-11 scFv, FLAG tag, His tag; also called positive clone MHT1002
EC50 (read off the curve) [4]: ~3 nM
EC50 ratio of binding (under the condition without the addition of MMP1/under the condition with the addition of MMP1) [5]: 4.3
EC50 (read off the curve) [6]: 10 to 20 nM

B7: HT1-11-scFv-HL (scFv)
scFv: ADVNSQVQLVQSGAEVKKPGASVKVSCKASGYTFTTAGMQWVRQAPGQGLEWMGWINTHSGVPKYAEDFKGRVTISADTSTSTAYLQLSSLKSEDTAVYYCARSGFGSSYWYFDVWGQGTLVTVSSGGGGSGGGGSGGGGSDIQMTQSPSSLSASVGDRVTITCKASQDVSTAVAWYQQKPGKAPKLLIYSASYRYTGVPSRFSGSGSGTDFTLTISSLQPEDFAVYYCQQHYITPLTFGQGTKLEIKRGAPSGDYKDDDDKGAAAHHHHHH
notes: as for B1
EC50 (read off the curve) [16]: ~4 nM
EC50 (read off the curve) [17]: ~5 nM

The remaining lines, values ahead:

EC50 (read off the curve) [7]: ~0.6 nM
EC50 (read off the curve) [8]: ~0.5 nM
EC50 (read off the curve) [9]: ~0.5 nM
B4: anti-TROP2 antibody HT1-11 (antibody)
heavy: not shown
light: DIQMTQSPSSLSASVGDRVTITCKASQDVSTAVAWYQQKPGKAPKLLIYSASYRYTGVPSRFSGSGSGTDFTLTISSLQPEDFAVYYCQQHYITPLTFGQGTKLEIKRTVAAPSVFIFPPSDEQLKSGTASVVCLLNNFYPREAKVQWKVDNALQSGNSQESVTEQDSKDSTYSLSSTLTLSKADYEKHKVYACEVTHQGLSSPVTKSFNRGEC
notes: Known antibody of WO 2015/098099; Entries are called full-length

EC50 ratio of binding (under the condition without the addition of uPA/under the condition with the addition of uPA) [10]: 83
EC50 (read off the curve) [11]: ~90 nM
EC50 (read off the curve) [12]: ~1 nM
B5: anti-TROP2 masked antibody MHT1009 (antibody)
heavy: not shown
light: B4 light
notes: IgG-type

EC50 ratio of binding (under the condition without the addition of MMP1/under the condition with the addition of MMP1) [13]: 104
EC50 (read off the curve) [14]: ~30 nM
EC50 (read off the curve) [15]: ~0.3 nM
B6: anti-TROP2 masked antibody MHT1007 (antibody)
heavy: not shown
light: B4 light
notes: IgG-type; MHT1001 mimotope and MMP cleavable linker fused to the heavy chain

EC50 ratio of binding (under the condition without the addition of MMP1/under the condition with the addition of MMP1) [5]: 7.9
EC50 (read off the curve) [18]: ~8 nM
B8: MHT1001 (scFv)
scFv: AMGYLALKHPWPGLAENSGSGGGGSVLVPMAMMASGGSDVNSQVQLVQSGAEVKKPGASVKVSCKASGYTFTTAGMQWVRQAPGQGLEWMGWINTHSGVPKYAEDFKGRVTISADTSTSTAYLQLSSLKSEDTAVYYCARSGFGSSYWYFDVWGQGTLVTVSSGGGGSGGGGSGGGGSDIQMTQSPSSLSASVGDRVTITCKASQDVSTAVAWYQQKPGKAPKLLIYSASYRYTGVPSRFSGSGSGTDFTLTISSLQPEDFAVYYCQQHYITPLTFGQGTKLEIKRGAPSGDYKDDDDKGAAAHHHHHH
notes: also called positive clone MHT1001
